Laboratory results taken from the supplement of paper PMC5998384.

Key:
[1] = tested on: HeLa Kyoto; assay: solubility change mitosis vs G1/S (difference of NP-40 vs SDS log2 ratios) (log2 ratio difference); higher = more soluble in mitosis
[2] = tested on: HeLa Kyoto; assay: solubility in G1/S (NP-40 vs SDS abundance) (log2 ratio); higher = more soluble; details: cell cycle stage: G1/S
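Wherever solubility change mitosis vs G1/S (difference of NP-40 vs SDS log2 ratios) is given: synchronized HeLa Kyoto cells (double thymidine block for G1/S, nocodazole release for mitosis), protein amounts in NP-40 versus SDS lysates quantified by mass spectrometry, three biological replicates.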
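Wherever solubility in G1/S (NP-40 vs SDS abundance) is given: HeLa Kyoto cells arrested at G1/S by double thymidine block, proteins quantified by TMT10plex mass spectrometry in mild NP-40 versus SDS extracts, three biological replicates.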

Row | Sequence | solubility change mitosis (log2) [1] | solubility in G1/S (log2) [2]
1 | MAGGRCGPQLTALLAAWIAAVAATAGPEEAALPPEQSRVQPMTASNWTLVMEGEWMLKFYAPWCPSCQQTDSEWEAFAKNGEILQISVGKVDVIQEPGLSGRFFVTTLPAFFHAKDGIFRRYRGPGIFEDLQNYILEKKWQSVEPLTGWKSPASLTMSGMAGLFSISGKIWHLHNYFTVTLGIPAWCSYVFFVIATLVFGLFMGLVLVVISECFYVPLPRHLSERSEQNRRSEEAHRAEQLQDAEEEKDDSNEEENKDSLVDDEEEKEDLGDEDEAEEEEEEDNLAAGVDEERSEANDQGPPGEDGVTREEVEPEEAEEGISEQPCPADTEVVEDSLRQRKSQHADKGL [TMX4] | -0.172 | 0.144
2 | MAGLGLGSAVPVWLAEDDLGCIICQGLLDWPATLPCGHSFCRHCLEALWGARDARRWACPTCRQGAAQQPHLRKNTLLQDLADKYRRAAREIQAGSDPAHCPCPGSSSLSSAAARPRRRPELQRVAVEKSITEVAQELTELVEHLVDIVRSLQNQRPLSESGPDNELSILGKAFSSGVDLSMASPKLVTSDTAAGKIRDILHDLEEIQEKLQESVTWKEAPEAQMQGELLEAPSSSSCPLPDQSHPALRRASRFAQWAIHPTFNLKSLSCSLEVSKDSRTVTVSHRPQPYRWSCERFSTSQVLCSQALSSGKHYWEVDTRNCSHWAVGVASWEMSRDQVLGRTMDSCCVEWKGTSQLSAWHMVKETVLGSDRPGVVGIWLNLEEGKLAFYSVDNQEKLLYECTISASSPLYPAFWLYGLHPGNYLIIKQVKV [RNF135] | -0.147 | 0.0392
3 | MAGLTLFVGRLPPSARSEQLEELFSQVGPVKQCFVVTEKGSKACRGFGYVTFSMLEDVQRALKEITTFEGCKINVTVAKKKLRNKTKEKGKNENSECPKKEPKAKKAKVADKKARLIIRNLSFKCSEDDLKTVFAQFGAVLEVNIPRKPDGKMRGFGFVQFKNLLEAGKALKGMNMKEIKGRTVAVDWAVAKDKYKDTQSVSAIGEEKSHESKHQESVKKKGREEEDMEEEENDDDDDDDDEEDGVFDDEDEEEENIESKVTKPVQIQKRAVKRPAPAKSSDHSEEDSDLEESDSIDDGEELAQSDTSTEEQEDKAVQVSNKKKRKLPSDVNEGKTVFIRNLSFDSEEEELGELLQQFGELKYVRIVLHPDTEHSKGCAFAQFMTQEAAQKCLLAASPENEAGGLKLDGRQLKVDLAVTRDEAAKLQTTKVKKPTGTRNLYLAREGLIRAGTKAAEGVSAADMAKRERFELLKHQKLKDQNIFVSRTRLCLHNLPKAVDDKQLRKLLLSATSGEKGVRIKECRVMRDLKGVHGNMKGQSLGYAFAEFQEHEHALKALRLINNNPEIFGPLKRPIVEFSLEDRRKLKMKELRIQRSLQKMRSKPATGEPQKGQPEPAKDQQQKAAQHHTEEQSKVPPEQKRKAGSTSWTGFQTKAEVEQVELPDGKKRRKVLALPSHRGPKIRLRDKGKVKPVHPKKPKPQINQWKQEKQQLSSEQVSRKKAKGNKTETRFNQLVEQYKQKLLGPSKGAPLAKRSKWFDS [RBM28] | 1.56 | -2.35
4 | MAGNFWQSSHYLQWILDKQDLLKERQKDLKFLSEEEYWKLQIFFTNVIQALGEHLKLRQQVIATATVYFKRFYARYSLKSIDPVLMAPTCVFLASKVEEFGVVSNTRLIAAATSVLKTRFSYAFPKEFPYRMNHILECEFYLLELMDCCLIVYHPYRPLLQYVQDMGQEDMLLPLAWRIVNDTYRTDLCLLYPPFMIALACLHVACVVQQKDARQWFAELSVDMEKILEIIRVILKLYEQWKNFDERKEMATILSKMPKPKPPPNSEGEQGPNGSQNSSYSQS [CCNC] | -0.0468 | -0.272
5 | MAGPPALPPPETAAAATTAAAASSSAASPHYQEWILDTIDSLRSRKARPDLERICRMVRRRHGPEPERTRAELEKLIQQRAVLRVSYKGSISYRNAARVQPPRRGATPPAPPRAPRGAPAAAAAAAPPPTPAPPPPPAPVAAAAPARAPRAAAAAATAPPSPGPAQPGPRAQRAAPLAAPPPAPAAPPAVAPPAGPRRAPPPAVAAREPPLPPPPQPPAPPQQQQPPPPQPQPPPEGGAVRAGGAARPVSLREVVRYLGGSGGAGGRLTRGRVQGLLEEEAAARGRLERTRLGALALPRGDRPGRAPPAASARPSRSKRGGEERVLEKEEEEDDDEDEDEEDDVSEGSEVPESDRPAGAQHHQLNGERGPQSAKERVKEWTPCGPHQGQDEGRGPAPGSGTRQVFSMAAMNKEGGTASVATGPDSPSPVPLPPGKPALPGADGTPFGCPPGRKEKPSDPVEWTVMDVVEYFTEAGFPEQATAFQEQEIDGKSLLLMQRTDVLTGLSIRLGPALKIYEHHIKVLQQGHFEDDDPDGFLG [SAMD1] | 0.323 | -0.144
6 | MAGRGSLVSWRAFHGCDSAEELPRVSPRFLRAWHPPPVSARMPTRRWAPGTQCITKCEHTRPKPGELAFRKGDVVTILEACENKSWYRVKHHTSGQEGLLAAGALREREALSADPKLSLMPWFHGKISGQEAVQQLQPPEDGLFLVRESARHPGDYVLCVSFGRDVIHYRVLHRDGHLTIDEAVFFCNLMDMVEHYSKDKGAICTKLVRPKRKHGTKSAEEELARAGWLLNLQHLTLGAQIGEGEFGAVLQGEYLGQKVAVKNIKCDVTAQAFLDETAVMTKMQHENLVRLLGVILHQGLYIVMEHVSKGNLVNFLRTRGRALVNTAQLLQFSLHVAEGMEYLESKKLVHRDLAARNILVSEDLVAKVSDFGLAKAERKGLDSSRLPVKWTAPEALKHGKFTSKSDVWSFGVLLWEVFSYGRAPYPKMSLKEVSEAVEKGYRMEPPEGCPGPVHVLMSSCWEAEPARRPPFRKLAEKLARELRSAGAPASVSGQDADGSTSPRSQEP [MATK] | 0.257 | -0.238
7 | MAGTALKRLMAEYKQLTLNPPEGIVAGPMNEENFFEWEALIMGPEDTCFEFGVFPAILSFPLDYPLSPPKMRFTCEMFHPNIYPDGRVCISILHAPGDDPMGYESSAERWSPVQSVEKILLSVVSMLAEPNDESGANVDASKMWRDDREQFYKIAKQIVQKSLGL [UBE2G2] | 0.17 | 0.6
8 | MALDPADQHLRHVEKDVLIPKIMREKAKERCSEQVQDFTKCCKNSGVLMVVKCRKENSALKECLTAYYNDPAFYEECKMEYLKEREEFRKTGIPTKKRLQKLPTSM [CMC1] | 0.26 | -0.253
9 | MALKAEGAALDCFEVTLKCEEGEDEEEAMVVAVIPRPEPMLRVTQQEKTPPPRPSPLEAGSDGCEEPKQQVSWEQEFLVGSSPGGSGRALCMVCGAEIRAPSADTARSHILEQHPHTLDLSPSEKSNILEAWSEGVALLQDVRAEQPSPPNSDSGQDAHPDPDANPDAARMPAEIVVLLDSEDNPSLPKRSRPRGLRPLELPAVPATEPGNKKPRGQRWKEPPGEEPVRKKRGRPMTKNLDPDPEPPSPDSPTETFAAPAEVRHFTDGSFPAGFVLQLFSHTQLRGPDSKDSPKDREVAEGGLPRAESPSPAPPPGLRGTLDLQVIRVRMEEPPAVSLLQDWSRHPQGTKRVGAGDTSDWPTVLSESSTTVAGKPEKGNGV [C11ORF84] | 0.023 | 0.38
10 | MALLSRPALTLLLLLMAAVVRCQEQAQTTDWRATLKTIRNGVHKIDTYLNAALDLLGGEDGLCQYKCSDGSKPFPRYGYKPSPPNGCGSPLFGVHLNIGIPSLTKCCNQHDRCYETCGKSKNDCDEEFQYCLSKICRDVQKTLGLTQHVQACETTVELLFDSVIHLGCKPYLDSQRAACRCHYEEKTDL [PLA2G12A] | 0.347 | -0.604
11 | MALVRALVCCLLTAWHCRSGLGLPVAPAGGRNPPPAIGQFWHVTDLHLDPTYHITDDHTKVCASSKGANASNPGPFGDVLCDSPYQLILSAFDFIKNSGQEASFMIWTGDSPPHVPVPELSTDTVINVITNMTTTIQSLFPNLQVFPALGNHDYWPQDQLPVVTSKVYNAVANLWKPWLDEEAISTLRKGGFYSQKVTTNPNLRIISLNTNLYYGPNIMTLNKTDPANQFEWLESTLNNSQQNKEKVYIIAHVPVGYLPSSQNITAMREYYNEKLIDIFQKYSDVIAGQFYGHTHRDSIMVLSDKKGSPVNSLFVAPAVTPVKSVLEKQTNNPGIRLFQYDPRDYKLLDMLQYYLNLTEANLKGESIWKLEYILTQTYDIEDLQPESLYGLAKQFTILDSKQFIKYYNYFFVSYDSSVTCDKTCKAFQICAIMNLDNISYADCLKQLYIKHNY [SMPDL3A] | 0.18 | 0.322
12 | MALVTVSRSPPGSGASTPVGPWDQAVQRRSRLQRRQSFAVLRGAVLGLQDGGDNDDAAEASSEPTEKAPSEEELHGDQTDFGQGSQSPQKQEEQRQHLHLMVQLLRPQDDIRLAAQLEAPRPPRLRYLLVVSTREGEGLSQDETVLLGVDFPDSSSPSCTLGLVLPLWSDTQVYLDGDGGFSVTSGGQSRIFKPISIQTMWATLQVLHQACEAALGSGLVPGGSALTWASHYQERLNSEQSCLNEWTAMADLESLRPPSAEPGGSSEQEQMEQAIRAELWKVLDVSDLESVTSKEIRQALELRLGLPLQQYRDFIDNQMLLLVAQRDRASRIFPHLYLGSEWNAANLEELQRNRVTHILNMAREIDNFYPERFTYHNVRLWDEESAQLLPHWKETHRFIEAARAQGTHVLVHCKMGVSRSAATVLAYAMKQYECSLEQALRHVQELRPIARPNPGFLRQLQIYQGILTASRQSHVWEQKVGGVSPEEHPAPEVSTPFPPLPPEPEGGGEEKVVGMEESQAAPKEEPGPRPRINLRGVMRSISLLEPSLELESTSETSDMPEVFSSHESSHEEPLQPFPQLARTKGGQQVDRGPQPALKSRQSVVTLQGSAVVANRTQAFQEQEQGQGQGQGEPCISSTPRFRKVVRQASVHDSGEEGEA [SSH3] | -0.161 | 0.212
13 | MANETQKVGAIHFPFPFTPYSIQEDFMAELYRVLEAGKIGIFESPTGTGKSLSLICGALSWLRDFEQKKREEEARLLETGTGPLHDEKDESLCLSSSCEGAAGTPRPAGEPAWVTQFVQKKEERDLVDRLKAEQARRKQREERLQQLQHRVQLKYAAKRLRQEEEERENLLRLSREMLETGPEAERLEQLESGEEELVLAEYESDEEKKVASRVDEDEDDLEEEHITKIYYCSRTHSQLAQFVHEVKKSPFGKDVRLVSLGSRQNLCVNEDVKSLGSVQLINDRCVDMQRSRHEKKKGAEEEKPKRRRQEKQAACPFYNHEQMGLLRDEALAEVKDMEQLLALGKEARACPYYGSRLAIPAAQLVVLPYQMLLHAATRQAAGIRLQDQVVIIDEAHNLIDTITGMHSVEVSGSQLCQAHSQLLQYVERYGKRLKAKNLMYLKQILYLLEKFVAVLGGNIKQNPNTQSLSQTGTELKTINDFLFQSQIDNINLFKVQRYCEKSMISRKLFGFTERYGAVFSSREQPKLAGFQQFLQSLQPRTTEALAAPADESQASTLRPASPLMHIQGFLAALTTANQDGRVILSRQGSLSQSTLKFLLLNPAVHFAQVVKECRAVVIAGGTMQPVSDFRQQLLACAGVEAERVVEFSCGHVIPPDNILPLVICSGISNQPLEFTFQKRELPQMMDEVGRILCNLCGVVPGGVVCFFPSYEYLRQVHAHWEKGGLLGRLAARKKIFQEPKSAHQVEQVLLAYSRCIQACGQERGQVTGALLLSVVGGKMSEGINFSDNLGRCVVMVGMPFPNIRSAELQEKMAYLDQTLSPRPGTPREGSGGEPVHEGRQPVHRQGHQAPEGFCQRSAPGPAICPAPCPGQAAGLDPSPCGGQSYLWPRHCCCAEVSPGEVGLFLMGNHTTAWRRALPLSCPLETVFVVGVVCGDPVTKVKPRRRVWSPECCQDPGTGVSSRRRKWGNPE [DDX11] | -0.0575 | -0.119
